From the supplement of paper PMC12667976

B1: library; numbered along this chain (parent)
chain: MATDAALRRLLRLHRTEIAVAVDSAFPLLHALADHDVVPEDKFQETLHLKEKEGCPQAFHALLSWLLTQDSTAILDFWRVLFKDYNLERYGRLQPILDSFPKDVDLSQPRKGRKPPAVPKALVPPPRLPTKRKASEEARAAAPAALTPRGTASPGSQLKAKPPKKPESSAEQQRLPLGNGIQTMSASVQRAVAMSSGDVPGARGAVEGILIQQVFESGGSKKCIQVGGEFYTPSKFEDSGSGKNKARSSSGPKPLVRAKGAQGAAPGGGEARLGQQGSVPAPLALPSDPQLHQKNEDECAVCRDGGELICCDGCPRAFHLACLSPPLREIPSGTWRCSSCLQATVQEVQPRAEEPRPQEPPVETPLPPGLRSAGEEVRGPPGEPLAGMDTTLVYKHLPAPPSAAPLPGLDSSALHPLLCVGPEGQQNLAPGARCGVCGDGTDVLRCTHCAAAFHWRCHFPAGTSRPGTGLRCRSCSGDVTPAPVEGVLAPSPARLAPGPAKDDTASHEPALHRDDLESLLSEHTFDGILQWAIQSMARPAAPFPS

Variants of: B1
Assay: AIRE transcriptional activation functional score (insulin promoter-GFP; nonsense median 0, synonymous median 1) (normalised score); higher = higher AIRE activity (more reporter activation)
Settings: with insulin promoter-GFP reporter in HEK293
How it was run: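 Three regions of AIRE were covered by codon-optimized NNN-codon libraries, which Bxb1 recombinase integrated into Flp-In T-REx HEK293 landing-pad cells that carry an insulin core promoter-GFP reporter. Integrants (mCherry+, BFP−) were sorted at day 7 and expanded 7 days, and then the top 10% GFP population and the unselected integrant population were tile-sequenced. The functional score is the enrichment of each variant in select versus non-select cells, with wild type subtracted. Variants required 10 counts per million in non-select, and values were rescaled to a nonsense median of 0 and a synonymous median of 1, then averaged over biological replicates.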

AIRE transcriptional activation functional score, by site and new letter:
P365: D 0.214 | N 0.389 | S 1.14 | I 0.733 | F 1.36 | E 1.33 | K 1.17 | A 1.05
R351: V 0.812 | T 0.615 | N 1.56 | G 1.02 | H 0.73 | D 0.673 | K 0.457 | E 0.835 | F 1.16 | A 1.34 | Q 1.44 | C 1.19 | I 0.573 | W 0.833 | Y 0.693 | L 0.985 | P 1.02 | S 1.01 | M 1.07
V362: N 1.3 | Y 1.31 | K 1.11 | M -0.739 | F 0.981 | E 1.07 | W 1.24 | D 1.3 | T 0.915 | A 1.13 | H 0.807 | S 1.07 | L 0.999 | P 0.988 | C 0.914 | I 1.32 | R 1.14 | Q 1.16 | G 1.02
E363: F 1.34 | R 1.21 | V 1.14 | P 0.843 | A 1.1 | Y 1.28 | G 1.02 | I 1.02 | Q 0.775 | L 1.29 | T 1.29 | S 1.04 | H 1.19 | D 0.917 | M 1.7 | C 1.27 | W 1.59 | N 1.09 | K 1.09
P360: Y 1.2 | D 0.792 | E 1.22 | Q 0.786 | W 1.38 | K 0.715 | T 0.775 | V 0.911 | I 1.13 | M 1.19 | G 1.16 | L 1.06 | C 1.08 | H 1.1 | A 0.888 | F 1.2 | S 0.994 | N 1 | R 1.02
